We go through three molecules from publication PMC12276895 (2025).

This test concerns the target prefusion biotinylated MERS-CoV EMC/2012 S ectodomain trimer (MERS-CoV EMC/2012, UniProt K9N5Q8 18-1296). The test is described as follows: SPR. For orientation: SPR reads the build-up and loss of mass on a sensor chip optically.

B1: nTrimer2 homotrimeric miniprotein (designed binder)
chain: SPVKRFVREVLEEAEEAYEKGDRRQFEELLWLAEWAARDANDEELEEEIREFEKEVKGSGKRIDEIESKLKHLEEFTTHLIKLMETMLELLKLVSDGKSDSEEYKELLEKAEEYLKQATEAAKKI
Regarding B1, the Kd (as a rule, the constant that tells how readily two partners part at equilibrium) turned out to be 0.027 nM.

B2: nTrimer1 homotrimeric miniprotein (cb3-GSG-Trimer1) (designed binder)
chain: SPVKRFVREVLEEAEEAYEKGDRRQFEELLWLAEWAARDANDEELEEEIREFEKEVKGSGSEALEELEKALRELKKSTDELERSTEELEKNPSEDALVENNRLIVENNKIIVEVLRIIAKVLK
Molecule B2 displayed a Kd of 0.021 nM.

B3: nTrimer5 homotrimeric miniprotein (designed binder)
chain: SPVKRFVREVLEEAEEAYEKGDRRQFEELLWLAEWAARDANDEELEEEIREFEKEVKGSGMTRLEQLLAQGVDPFEVLREKIEKLKEIWKKYEEAKGEEKERYRDELLKLMMEVLELMVELLSRR
The molecule B3 registered a Kd of 0.032 nM.
